Results published in patent US20150197568A1.

Target: Mature human IL-6 (human) (UniProt P05231)
Assay: cell-based or functional assay

Mature human IL-6 (human), sequence (P05231 30-212): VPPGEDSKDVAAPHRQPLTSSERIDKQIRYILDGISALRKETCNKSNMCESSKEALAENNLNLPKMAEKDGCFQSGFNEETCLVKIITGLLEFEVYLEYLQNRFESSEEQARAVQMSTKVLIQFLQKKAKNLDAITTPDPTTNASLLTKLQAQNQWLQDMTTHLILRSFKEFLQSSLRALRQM

Row | Binder | IC50, TF-1 cell proliferation assay [nM] | IC50, IL-6 induced TF-1 cell proliferation assay [nM] | IC50, endogenous IL-6 induced synovial fibroblast VEGF release assay [nM]
1 | Antibody 8 scFv (scFv, part only; not given: scFv linker, part only) scFv, part: EVQLVQSGGGLIQPGGSLRLSCAASGFTISSNYMIWVRQAPGKGLEWVSDLYYYAGDTYYADSVKGRFTMSRDISKNTVYLQMNSLRAEDTGVYYCARWADDHPRYIDHWGRGTLVTVSSDIVMTQSPSTLSASVGDRVTITCRASQGISSWLAWYQQKPGRAPKVLIYKASTLESGVPSRFSGSGSGTDFTLTISSLQPEDFATYYCQQSWLGGSFGQGTKLEIKR | 0.419 | – | –
2 | Antibody 14 scFv (scFv, part only; not given: scFv linker, part only) scFv, part: EVQLVQSGGGLIQPGGSLRLSCAASGFTISSNYMIWVRQAPGKGLEWVSDLYYYAGDTYYADSVKGRFTMSRDISKNTVYLQMNSLRAEDTGVYYCARWADDHNYPHIDVWGRGTLVTVSSDIVMTQSPSTLSASVGDRVTITCRASQGISSWLAWYQQKPGRAPKVLIYKASTLESGVPSRFSGSGSGTDFTLTISSLQPEDFATYYCAAHYAAPWTFGQGTKLEIKR | 0.448 | – | –

Continued, values first:

Row | IC50, TF-1 cell proliferation assay [nM] | IC50, IL-6 induced TF-1 cell proliferation assay [nM] | IC50, endogenous IL-6 induced synovial fibroblast VEGF release assay [nM] | Binder
3 | 0.042 | – | – | Antibody 21 scFv (scFv, part only; not given: scFv linker, part only) scFv, part: EVQLVQSGGGLIQPGGSLRLSCAASGFTISSNYMIWVRQAPGKGLEWVSDLYYYAGDTYYADSVKGRFTMSRDISKNTVYLQMNSLRAEDTGVYYCARWADDHPSHIDVWGRGTLVTVSSDIVMTQSPSTLSASVGDRVTITCRASQGISSWLAWYQQKPGRAPKVLIYKASTLESGVPSRFSGSGSGTDFTLTISSLQPEDFATYYCQQSWLGGSFGQGTKLEIKR
4 | 0.074 | 0.101 | 1.31 | CNTO-328 (antibody, INN chains, looked up, V domains shown) VH: EVQLVESGGKLLKPGGSLKLSCAASGFTFSSFAMSWFRQSPEKRLEWVAEISSGGSYTYYPDTVTGRFTISRDNAKNTLYLEMSSLRSEDTAMYYCARGLWGYYALDYWGQGTSVTVSS VL: QIVLIQSPAIMSASPGEKVTMTCSASSSVSYMYWYQQKPGSSPRLLIYDTSNLASGVPVRFSGSGSGTSYSLTISRMEAEDAATYYCQQWSGYPYTFGGGTKLEIK
5 | 0.041 | – | – | Antibody 22 scFv (scFv, part only; not given: scFv linker, part only) scFv, part: EVQLVQSGGGLIQPGGSLRLSCAASGFTISSNYMIWVRQAPGKGLEWVSDLYYYAGDTYYADSVKGRFTMSRDISKNTVYLQMNSLRAEDTGVYYCARWADDHNNTYIDVWGRGTLVTVSSDIVMTQSPSTLSASVGDRVTITCRASQGISSWLAWYQQKPGRAPKVLIYKASTLESGVPSRFSGSGSGTDFTLTISSLQPEDFATYYCAAHYAAPWTFGQGTKLEIKR
